Experimental findings from PMC2999460, “Porphobilinogen Synthase from the Butterfly, Pieris brassicae: Purification and Comparative Characterization” (2007) are described below.

Series [1] concerns the target porphobilinogen synthase (PBGS) from Pieris brassicae (Pieris brassicae (endogenous in adult insects)). In words: native gel or EMSA; native PAGE at 4.5, 6.0, 7.5 and 9.75% polyacrylamide (Hedrick and Smith; buffer system of Davis) with reference proteins: 292.3 kDa for the holoenzyme, set against 36.5 kDa for the subunit by SDS/urea-PAGE; purified PBGS and a partially purified preparation.

Series [2] concerns the target T1, porphobilinogen synthase (PBGS) (Pieris brassicae, UniProt A0A9P0XHI4).
T1 construct: gene PIBRA_LOCUS11261
T1 sequence (A0A9P0XHI4 1-333): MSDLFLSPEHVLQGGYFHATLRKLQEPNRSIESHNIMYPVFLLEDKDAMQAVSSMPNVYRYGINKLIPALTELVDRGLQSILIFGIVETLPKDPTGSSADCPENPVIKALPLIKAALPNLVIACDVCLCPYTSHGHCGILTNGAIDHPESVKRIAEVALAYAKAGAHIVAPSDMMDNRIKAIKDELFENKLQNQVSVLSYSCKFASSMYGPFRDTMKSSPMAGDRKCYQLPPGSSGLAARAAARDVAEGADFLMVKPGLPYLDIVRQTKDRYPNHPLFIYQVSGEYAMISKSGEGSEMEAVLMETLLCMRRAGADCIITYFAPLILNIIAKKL
In words: enzyme activity assay (PBG formation, Ehrlich's reagent, […] nm), Lineweaver-Burk analysis. In kind it is biochemical.

Series [3] addresses T1, porphobilinogen synthase (PBGS). In words: biochemical.
Substrate in the series “purified protein”: NCC(=O)CCC(=O)O
As to the kind of experiment: purified protein. The note with it: zinc active site.

In series [1], “porphobilinogen synthase (PBGS) from Pieris brassicae (enzyme)” displayed a stoichiometry N of 8. Take `CC(=O)CC(=O)CCC(=O)O` [SA, 4,6-dioxo-heptanoic acid]: 4.5 µM corresponded to half-maximal inhibition in series [2] (IC50). Turning to `CC(=O)CCC(=O)O` [LA, levulinic acid], the Ki in series [3] amounted to 340 µM.

B1: porphobilinogen synthase (PBGS) (Pieris brassicae) (protein)
chain: T1 sequence (A0A9P0XHI4 1-333)
On to B1, for which, in the series “purified protein”, the Km is 360 µM.
